Target: human CSF-1R fragment D1-D3 (human, UniProt P07333 20-311)
Assay: SPR
Experimental: The binding of […] anti-CSF-1R antibodies to human CSF-1R fragment D1-D3 (SEQ ID NO:13) was measured as described in Example 10 of WO2011/070024.

binding result: no binding
B1: emactuzumab (antibody, V domains shown)
VH: QVQLVQSGAEVKKPGASVKVSCKASGYTFTSYDISWVRQAPGQGLEWMGVIWTDGGTNYAQKLQGRVTMTTDTSTSTAYMELRSLRSDDTAVYYCARDQRLYFDVWGQGTTVTVSS
VL: DIQMTQSPSSLSASVGDRVTITCRASEDVNTYVSWYQQKPGKAPKLLIYAASNRYTGVPSRFSGSGSGTDFTLTISSLQPEDFATYYCQQSFSYPTFGQGTKLEIK
notes: also called anti-CSF-1R antibody emactuzumab; <CSF-1R> MAb

Reference: patent US20190309078A1 (Hoffmann-La Roche, published 2019)
